In US20230340152A1 (published 2023) one finds binding result, koff and kon data, which are given here for 1 molecule.

Assay [1] concerns the target T1, Human CD73 K180A+N185G, His-tagged (human, UniProt P21589 27-549).
T1 chain: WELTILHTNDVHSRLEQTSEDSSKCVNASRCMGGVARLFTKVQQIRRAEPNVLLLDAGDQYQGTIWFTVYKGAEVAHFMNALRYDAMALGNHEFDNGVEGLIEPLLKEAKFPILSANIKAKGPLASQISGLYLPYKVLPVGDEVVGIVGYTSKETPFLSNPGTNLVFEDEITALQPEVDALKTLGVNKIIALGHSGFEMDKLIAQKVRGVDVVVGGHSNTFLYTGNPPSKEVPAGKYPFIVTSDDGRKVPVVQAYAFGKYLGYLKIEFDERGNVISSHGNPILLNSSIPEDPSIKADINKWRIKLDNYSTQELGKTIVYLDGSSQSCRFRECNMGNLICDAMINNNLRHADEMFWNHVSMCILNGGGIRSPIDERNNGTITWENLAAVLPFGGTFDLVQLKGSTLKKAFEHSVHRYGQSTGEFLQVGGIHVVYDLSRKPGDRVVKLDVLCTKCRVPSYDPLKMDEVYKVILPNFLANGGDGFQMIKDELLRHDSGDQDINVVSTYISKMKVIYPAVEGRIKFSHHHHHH
The assay is described as follows: SPR (ProteOn), CD73 variant immobilized on HTG chip. The method, then: (§1) Binding of MEDI9447 to wild-type and mutant CD73 proteins was measured by surface plasmon resonance (SPR) using a ProteOn instrument (BioRad). CD73 crude cell supernatant protein samples were diluted to 3 µg/ml in PBS, 0.005% Tween-20, pH 7.4 (BioRad) and immobilized to ~400 RU on a HTG tris-NTA sensor chip (BioRad) pre-activated with 10 mM NiSO₄, 10 mM MES, pH 6.0 (BioRad). An equivalently diluted crude cell supernatant sample from non-transfected cells was included as a reference channel control. Sensorgrams were recorded by flowing two-fold dilutions of MEDI9447 prepared in PBS, 0.005% Tween-20, pH 7.4, ranging from 5 nM to 0.31 nM. […] Antibody binding was measured at a flow rate of 100 µL/min with a 3 min association phase and 20 min dissociation phase. The sensor chip surface was regenerated between each run by an 800 s injection of 300 mM EDTA, pH 8.5 (BioRad) at a flow rate of 30 µL/min. Binding kinetics were analyzed using the ProteOn data analysis software. Double referencing was performed and, unless noted otherwise, a 1:1 Langmuir binding model was utilized to fit the data. Some CD73 variants containing mutations within the amino acid region 171-188 fit poorly to a 1:1 model (i.e., Chi² values >10% of Rmax). Where noted, these variants were fit with a heterogenous antigen (2:1) model. […] Due to the assay format (antigen immobilized) and the dimeric state of CD73, KD values may be exaggerated due to avidity effects. However, it is not anticipated that this impacts ranking of MEDI9447 binding to the different CD73 variants.

Assay [2] concerns the target T2, Human CD73 K180A, His-tagged (human, UniProt P21589 27-549).
T2 sequence: T1 chain with G185N
The description is as above. The method, then: as §1

Numbering of substitutions follows the chain as printed. Names may count otherwise.

B1: MEDI9447 (antibody, human IgG1, lambda, V domains shown)
VH: EVQLLESGGGLVQPGGSLRLSCAASGFTFSSYAYSWVRQAPGKGLEWVSAISGSGGRTYYADSVKGRFTISRDNSKNTLYLQMNSLRAEDTAVYYCARLGYGRVDEWGRGTLVTVSS
VL: QSVLTQPPSASGTPGQRVTISCSGSLSNIGRNPVNWYQQLPGTAPKLLIYLDNLRLSGVPDRFSGSKSGTSASLAISGLQSEDEADYYCATWDDSHPGWTFGGGTKLTVLG
notes: Human IgG1-TM (L234F, L235E, P331S), lambda light chain; also called clone 10.3 antibody; 73combo3
Regarding B1, the binding result in assay [1] is recorded as “no binding”. Also, in assay [2], the koff (commonly a measure of how fast the partners let go of each other) amounted to 0.000154 s⁻¹ and the kon – broadly, the rate constant with which the complex forms – was 3.45e+06 M⁻¹ s⁻¹.
